The record followed here is patent US20130225503A1, “TEX14 PEPTIDES AS NOVEL ANTITUMOR AGENTS” (Baylor Licnensing Group, priority 2009, published 2013).

In one data set the target is T1, CEP55 (C1) hinge region (Mus musculus, UniProt Q8BT07).
T1 construct: an 80-amino-acid fragment of CEP55 (C1) that contains the hinge region; expressed in transfected cells; host or cells: yeast (Matchmaker Two-Hybrid System 3, Clontech)
T1 sequence (Q8BT07 157-235 limits assumed): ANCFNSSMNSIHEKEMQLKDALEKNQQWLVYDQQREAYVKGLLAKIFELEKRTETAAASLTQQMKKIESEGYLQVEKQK
Put plainly: Yeast two-hybrid assay of truncated TEX14 with the CEP55 hinge fragment C1. The class given is binding. The settings on record: 80-amino-acid fragment of CEP55 containing the hinge region; FIG. 3A to C. Here is the method:
(§1) Protein-protein interactions were evaluated by using the Matchmaker Two-Hybrid System 3 (Clontech) as described previously (10). Mouse full-length TEX14 and MLKP1 were previously subcloned into the Matchmaker GAL4 two-hybrid pGBKT7 and pGADT7 vectors (10). The constructs of full-length mouse and human CEP55, human TEX14, truncated mouse CEP55-C1, and truncated mouse TEX14-T1, T2, T1[…]T2, T3, T4, and T4-C were made by using the Matchmaker GAL4 two-hybrid pGBKT7 bait vector and pGADT7 prey vectors. Some Y2H interactions were examined with an oxygen biosensor assay (Clontech PT3584-1) that measured the fluorescence emitted by an oxygen-sensing platform that detects GAL4.
To determine the relevance of this GPPX3Y motif as it relates to the interaction of TEX14 with CEP55, we performed yeast two-hybrid assays with mouse TEX14 amino acids 756 to 815 that contain the GPPX3Y motif (FIG. 3A). These 60 amino acids interacted with full-length CEP55 (FIGS. 3B and C). Conversely, an 80-amino-acid fragment of CEP55 (C1) that contains the hinge region interacted with full-length TEX14, the C terminus (T3), and GPPX3Y-containing fragment (T4) but not a shorter sequence that lacked the GPPX3Y motif (T4-C) (FIG. 3A to C). Thus, similar GPPX3Y-containing regions of TEX14, ALIX, and TSG101 interact with the hinge region of CEP55.

Data set [1] concerns the molecule itself. Put plainly: yeast two-hybrid, full-length proteins, oxygen biosensor and selection plates. As to the method:
(A) Immunoprecipitation (IP) of FLAG-TEX14 and/or MYC-CEP55 from HEK293T cells, followed by Western blot analysis with the antibodies as shown. Immunoprecipitation of protein G (lanes G) is the control. (B) Yeast two-hybrid analyses using vectors encoding full-length mouse TEX14, MKLP1, CEP55, and positive and negative controls. The relative ratios of TEX14-TEX14, TEX14-MKLP1, and TEX14-CEP55 interactions were determined by using an oxygen-biosensor system. (C) Yeast two-hybrid interactions of mouse and human full-length TEX14 and CEP55. (a) Yeast were stably transformed with vectors and plated for yeast two-hybrid analysis as depicted. SV40 T antigen with p53 and SV40 T antigen with lamin C were used as positive and negative controls, respectively. (b) Interactions between the two-hybrid proteins are evident by colony growth and blue color on selection plates.
as §1
Since both CEP55 and TEX14 interact with MKLP1 (10, 22), it was determined whether CEP55 and TEX14 are components of the intercellular bridge as direct or indirect interactors. The inventors first overexpressed full-length FLAG-TEX14 and MYC-CEP55 constructs in HEK293T cells (FIG. 2A). […] Likewise, when the inventors immunoprecipitate with anti-MYC antibody, they immunoprecipitate both MYC-CEP55 and FLAG-TEX14.

Take “T4: GPPX3Y-containing fragment of mouse TEX14, amino acids 756 to 815 (EVEELEWAQKELDSQCSSLRDASLKFANAKFQPAVGPPSLAYLPPVMQLPGLKQPENGGT; UniProt Q7M6U3 756-815, looked up, fragment)”: in the data set with CEP55 (C1) hinge region, the “yeast two-hybrid interaction with CEP55 fragment C1” value is listed as “interacted”.

B1: full-length mouse TEX14 (other, UniProt Q7M6U3 1-1450, looked up)
chain: MSRGAPFPVPCPVLLGTFTDDSLEAQLHEYAKQGNCVKLKKILKKGVCVDAVNTQGQSALFVAALLGHVKLVDVLVDYGSDPNHRCFDGSTPVHAAAFSGNQWILSKLLTAGGDLRLHDEKGRNPQAWALTAGKDRSTQMVEFMQRCTSHMKAIIQGFSYDLLKKIDSPQRLIGSPPWFGSLIQGSPNSSPNRQLKPGIISAQNIYSFGFGKFYLTSGMQLTYPGSLPVIGEKEVVQADDEPTFSFFSGPYMVMTNLVWNRSRVTVKELNLPTRPHCSRLRLADLLIAEQEHSSNLRHPNLLQLMAVCLSRDLEKIRLVYERITVGTLFSVLHERRSQFPVLHMEVIVHLLLQVADALIYLHSRGFIHRSLSSYAVHIVSAGEARLTNLEYLTESQDSGAHRNVTRMPLPTQLYNWAAPEVVLQKAATVKSDIYSFSVIIQEILTDSIPWNGLDGSLVKETIALGNYLEADVRLPEPYYDIVKSGIHAKQKNRTMNLQDIRYILKNDLKEFIGAQKTQPTESPRGQSYEPHPDVNICLGLTSEYQKDPPDLDIKELKEMGSQPHSPTDHSFLTVKPTLAPQTLDSSLSAQKPDNANVPSPPAACLAEEVRSPTASQDSLCSFEINEIYSGCLTLGTDKEEECLGTAASPEGDRPNQGDELPSLEEELDKMERELHCFCEEDKSISEVDTDLLFEDDDWQSDSLGSLNLPEPTREAKGKTSSWSKTDEYVSKCVLNLKISQVMMQQSAEWLRKLEQEVEELEWAQKELDSQCSSLRDASLKFANAKFQPAVGPPSLAYLPPVMQLPGLKQPENGGTWLTLARSPGNEREFQEGHFSKKPEKLSACGWKPFTQVSEESRGDCSELNNQLPTLRGPGKQSTGEQLPSTQEARESLEKNTNQNSRSMASVSSEIYATKSRNNEDNGEAHLKWRLAVKEMAEKAVSGQLLLPPWNPQSSAPFESKVENESTPLPRPPIRGPESTEWQHILEYQRENDEPKGNTKFGKMDNSDCDKNKHSRWTGLQRFTGIRYPFFRNHEQPEQNEASQASCDTSVGTEKFYSTSSPIGDDFERFQDSFAQRQGYVEENFQIREIFEKNAEILTKPQFQAIQCAEDKQDETLGETPKELKEKNTSLTDIQDLSSITYDQDGYFKETSYKTPKLKHAPTSASTPLSPESISSAASHYEDCLENTTFHVKRGSTFCWNGQEAMRTLSAKFTTVRERAKSLESLLASSKSLPAKLTDSKRLCMLSETGSSNVSAAFVTSTHATKRKSLPRELAEATSQQHLDELPPPAQELLDEIEQLKQQQVSSLASHENTARDLSVTNKDKKHLEEQETNSSKDSSFLSSREIQDLEDTERAHSSLDEDLERFLQSPEENTALLDPTKGSTREKKNKDQDVVEQKRKKKESIKPERRESDSSLGTLEEDELKPCFWKRLGWSEPSRIIVLDQSDLSD
notes: whole, on cells; In the yeast two-hybrid assay it stood as a fusion with a GAL4 domain (pGBKT7 bait or pGADT7 prey vector)
B1: in data set [1], the binding result is “binds”.
